Target: HIV gp120 (HIV-1)
Assay: SPR

Substance: Griffithsin (from UniProt P84801 1-121) (natural protein)
- Kd: 0.798 nM
- koff: 0.00175 s⁻¹
- kon: 2.19e+06 M⁻¹ s⁻¹

From article PMC4649164
